Data set [1] has as its target K2Q23K2.
The target in data set [2] is K2Q23K2. In words: sedimentation assay with HPLC of the supernatant.
Data set [3] deals with K2Q23K2. The data set can be described thus: sedimentation assay with HPLC.
Data set [4] has as its target K2Q23K2. In words: seeded elongation kinetics.
Data set [5] is described as follows: Dynamic light scattering of aggregation reactions. Type of data set: physicochemical. Particulars: 166 μM, PBS 37 °C, different incubation times.
Data set [6] is described as follows: Electron microscopy of end-stage aggregates. Particulars: PBS 37 °C, uniform smooth-sided fibrils. Type of data set: physicochemical.
Data set [7] is described as follows: Aggregation time course by HPLC sedimentation assay. Type of data set: physicochemical. Particulars: comparable concentrations, PBS 37 °C.
Data set [8] deals with the molecule itself. In words: sedimentation assay with HPLC of the supernatant.

In the case of K2Q23K2 (peptide), the loss of monomer within two hours (215 μM) with K2Q23K2 [1] is less than 1%. In the data set with K2Q23K2 [2], this molecule displayed a n* (critical nucleus size of aggregation) of 3.9; a nucleation equilibrium constant Kn* (monomers to tetrameric nucleus) of 0.076 l^3/mol^3; a percent aggregation (215 μM, 27 hrs) of 5%. The molecule also had a critical concentration (Cr) of monomer in equilibrium with fibrils with K2Q23K2 [3] of 3 µM. The kon with K2Q23K2 [4] is 12400 M⁻¹ s⁻¹.

B1: AT7^NTQ30K2: peptide consisting of the AT7^NT sequence (29 amino acid N-terminus of ataxin-7) followed by a Q30K2 sequence (peptide)
peptide: MSERAADDVRGEPRRAAAAAGGAAAAAARQQQQQQQQQQQQQQQQQQQQQQQQQQQQQQKK
With B1, the “Aggregate formation by DLS versus sedimentation assay” value in data set [5] is on record as “no aggregate formation that was not detected by the sedimentation assay”. For the same molecule, the “Fibril diameter by electron microscopy” value in data set [6] is roughly 10 nm. In data set [7], the “Aggregation rate compared with K2Q30K2” value was “aggregates somewhat slower than K2Q30K2”.

For KKQQQQQQQQQQQQQQQQQQQQQQQQQQQQQQQQQQQQQKK [K2Q37K2], the “n* (critical nucleus size of aggregation)” value in data set [8] was found to be 0.7.

Regarding KKQQQQQQQQQQQQQQQQQQQQQQQQKK [K2Q24K2], the “n* (critical nucleus size of aggregation)” value in data set [8] was 3.3.

B2: SFQ37P10K2 (peptide)
peptide: SFQQQQQQQQQQQQQQQQQQQQQQQQQQQQQQQQQQQQQPPPPPPPPPPKK
For the molecule B2, in data set [8], the “n* (critical nucleus size of aggregation)” value is 1.

Regarding KKQQQQQQQQQQQQQQQQQQQQQQQQQKK [K2Q25K2], in data set [8], the “n* (critical nucleus size of aggregation)” value is 2.

A word on the kon: it is the rate constant with which the complex forms. A high value points to fast association.

These data come from paper PMC3075957 (Nature structural & molecular biology, 2011).
